Results as given in patent US20180002421A1 (INSERM INSTITUT NATIONAL DE LA SANTA ET DE LA RECHERCHE …, published 2018).

Molecular target: T1, orexin receptor type 1 (OX1R), recombinant, stably expressed on HEK cells (human, UniProt O43613 1-425)
T1 construct: whole, on cells; also called HEK-OX1R; hypocretin receptor type 1
T1 sequence (looked up): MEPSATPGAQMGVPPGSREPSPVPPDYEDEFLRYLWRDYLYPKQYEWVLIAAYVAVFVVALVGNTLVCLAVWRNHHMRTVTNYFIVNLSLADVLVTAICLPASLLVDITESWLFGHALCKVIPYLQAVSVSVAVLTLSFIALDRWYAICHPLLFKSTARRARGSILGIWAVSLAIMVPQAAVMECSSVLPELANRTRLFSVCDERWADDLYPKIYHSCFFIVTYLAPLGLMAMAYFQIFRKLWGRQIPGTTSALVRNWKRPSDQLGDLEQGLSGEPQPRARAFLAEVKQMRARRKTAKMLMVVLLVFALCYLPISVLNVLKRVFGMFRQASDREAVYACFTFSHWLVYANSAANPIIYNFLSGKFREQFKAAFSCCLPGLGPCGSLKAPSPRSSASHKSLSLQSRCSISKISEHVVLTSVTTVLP
Assay: competitive inhibition of 125I-OxA binding to HEK-OX1R cells

B1: C2 antibody (antibody, V domains shown)
VH: EVQLVESGGSLVKPGGSLRLSCAASGFTFSNSYMNWVRQAPGKGLEWISSIYGSSRYIDYADFVKGRFTISRDNATNSLYLQMNSLRAEDTAVYYCVRSSSYYGSGMDVWGRGTLVTVSS
VL: QSVLTQPASVSGSPGQSITISCAGTSSDVGGYGSVSWYQQHPGKAPKLMIYYDSYRPSGVSNRFSGSKSGNTASLTISGLQAEDEADYYCSSNTNSSTRVFGGGTKLAVLG
notes: Human antibody from phage display; also called anti-OX1R antibody C2
- IC50: ~5 µM
